{"source": "patent US20240327460A1", "about": "“NORA INHIBITORS AND METHODS OF USE” (priority 2021, published 2024)", "molecules": {"B1": {"name": "Fab36 (Fab, V domains shown)", "VH": "EVQLVESGGGLVQPGGSLRLSCAASGFTFSSSSIHWVRQAPGKGLEWVASISSSSGSTSYADSVKGRFTISADTSKNTAYLQMNSLRAEDTAVYYCARYSRYYYYAWRVGGYWGGLDYWGQGTLVTVSS", "VL": "DIQMTQSPSSLSASVGDRVTITCRASQSVSSAVAWYQQKPGKAPKLLIYSASSLYSGVPSRFSGSRSGTDFTLTISSLQPEDFATYYCQQSSSSLITFGQGTKVEIKR", "notes": "also called N3-36"}, "B2": {"name": "Fab36: synthetic antigen-binding fragment binding NorA; CDRH3 SEQ ID NO: 7; VH SEQ ID NO: 32, VL SEQ ID NO: 33 (antibody, V domains shown)", "VH": "B1 VH", "VL": "DIQMTQSPSSLSASVGDRVTITCRASQSVSSAVAWYQQKPGKAPKLLIYSASSLYSGVPSRFSGSRSGTDFTLTISSLQPEDFATYYCQQSSSSLITFGQGTKVEIKRTV", "modifications": "NorA Antibody N3-36, Heavy Chain Variable Region; NorA Antibody N3-36, Light Chain Variable Region"}, "B3": {"name": "Fab36^R134A (antibody, V domains shown)", "VH": "B1 VH with R108A", "VL": "B2 VL"}, "B4": {"name": "Fab36^R134A (Fab, V domains shown)", "VH": "B1 VH with R108A", "VL": "B1 VL"}, "B5": {"name": "Fab36^W133A (Fab, V domains shown)", "VH": "B1 VH with W107A", "VL": "B1 VL"}, "B6": {"name": "Fab25: synthetic antigen-binding fragment binding NorA; CDRH3 SEQ ID NO: 6; VH SEQ ID NO: 30, VL SEQ ID NO: 31 (antibody, V domains shown)", "VH": "EVQLVESGGGLVQPGGSLRLSCAASGFTFSSSSIHWVRQAPGKGLEWVASISSSSGSTSYADSVKGRFTISADTSKNTAYLQMNSLRAEDTAVYYCARWETGYYPYWRMYGFYWALDYWGQGTLVTVSS", "VL": "B2 VL", "modifications": "NorA Antibody N3-25, Heavy Chain Variable Region; NorA Antibody N3-25, Light Chain Variable Region"}, "B7": {"name": "NPI-1 (NorA peptide inhibitor), NH2-…-CONH2 (peptide)", "peptide": "H-YYYYAWRVGGYWR-NH2"}}, "key": {"MRSA": {"system": "MRSA", "assay_type": "cell-based, Staphylococcus aureus", "conditions": "12.5 μg/ml norfloxacin", "description": "To test the effects of peptides, overnight cultures of wild-type MRSA and MRSA^ΔnorA in TSB media were diluted 1:1,000 in TSB with varying concentrations of peptides, in the presence or the absence of norfloxacin (12.5 μg/ml). All the peptide concentrations contained equal amount of the DMSO vehicle. OD600nm was measured as a function of time in a BioScreen C device at 37° C. with shaking between measurements every 15 min. Three independent experiments were acquired; reported errors reflect the standard deviation among the independent experiments."}, "[1]": {"target": "T1, S. aureus NorA with a carboxy-terminal decahistidine tag, purified (Staphylococcus aureus, UniProt Q5HHX4 1-388)", "T1 sequence": "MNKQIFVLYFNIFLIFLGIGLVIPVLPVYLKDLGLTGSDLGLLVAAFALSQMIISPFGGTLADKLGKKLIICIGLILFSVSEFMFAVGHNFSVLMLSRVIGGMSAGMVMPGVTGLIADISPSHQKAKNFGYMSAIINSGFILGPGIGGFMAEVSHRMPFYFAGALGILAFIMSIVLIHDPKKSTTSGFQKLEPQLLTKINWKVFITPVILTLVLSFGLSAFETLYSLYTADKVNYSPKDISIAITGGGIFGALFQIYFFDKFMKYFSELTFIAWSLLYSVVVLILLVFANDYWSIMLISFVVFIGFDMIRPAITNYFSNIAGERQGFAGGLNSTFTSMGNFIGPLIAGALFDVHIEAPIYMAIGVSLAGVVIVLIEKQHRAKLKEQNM"}, "[2]": {"target": "T1, S. aureus NorA with a carboxy-terminal …", "experiment": "MST"}, "NorA [3]": {"target": "T2, NorA (Staphylococcus aureus, UniProt Q5HHX4)", "T2 construct": "made in house; host or cells: C43 (DE3) E. coli", "T2 sequence (Q5HHX4 whole entry, looked up)": "T1 sequence", "experiment": "Inhibition of NorA by Fabs in E. coli (co-expression growth inhibition assay)", "assay_type": "cell-based, S. aureus", "conditions": "E. coli co-expressing NorA and Fab; for E. coli growth inhibition in the presence of norfloxacin: 1.2 μg/ml norfloxacin, arabinose-induced Fab, OD600nm; for E. coli growth inhibition in the absence of norfloxacin: no norfloxacin", "source_text": "NorA was encoded in a pTrcHis2C plasmid (ampicillin resistance) with a C-terminal myc-tag (Yu et al., “NorA Functions as a Multidrug Efflux Protein in Both Cytoplasmic Membrane Vesicles and Reconstituted Proteoliposomes,” J Bacteriol 184:1370-1377 (2002), which is hereby incorporated by reference in its entirety), while Fabs were cloned in a pBAD33 plasmid (gentamicin resistance) (Jimenez et al., “Genetics and Proteomics of Aeromonas salmonicida Lipopolysaccharide Core Biosynthesis,” J Bacteriol 191:2228-2236 (2009), which is hereby incorporated by reference in its entirety) with a C-terminal Avi-tag on the heavy chain of the Fab. Competent Top10 E. coli were co-transformed with vectors containing NorA and Fabs (Fab25, Fab36, or Fabcontrol) and grown on LB agar plates infused with carbenicillin and gentamicin. For time dependent growth curves, a single colony from the transformation was inoculated into TBG media in the presence of carbenicillin and gentamicin. The culture was grown to saturation for ˜20 hr at 30° C. Cultures were diluted by 300-fold into fresh TBG media containing carbenicillin and gentamicin, norfloxacin (0 or 1.2 μg/ml), and arabinose (0%, 0.0001%, 0.0005%, 0.0025%, 0.01%, 0.05%, 0.1%, 0.2%, 0.4%, or 0.8%). OD600nm was measured as a function of time in a BioScreen Pro C device at 30° C. with shaking between measurements every 15 min. Four independent experiments were acquired with two technical replicates per experiment; reported errors reflect the standard deviation among the experiments. Immunoblot (IB) analyses were performed on E. coli lysates co-expressing NorA and Fabs following 24 hr of growth in TBG media in the absence of norfloxacin. Primary antibodies at 1:1,000 dilutions detected the C-terminal myc tag on NorA (Genscript) and the C-terminal Avi tag on the heavy chain of the Fab (Genscript). IB analyses were repeated two independent times.\nThe insertion of Fab CDRH3 loops into the substrate binding pocket of NorA, as observed in the cryo-EM structures, afforded the expectation that Fab binding would inhibit antibiotic efflux (FIGS. 1A-1D, 4G). […] Since NorA is located within the inner membrane and confers norfloxacin resistance to E. coli (FIG. 6D), growth inhibition was assessed by co-expressing Fabs in the periplasm to allow access to the extracellular face of NorA. Growth curves (OD600 nm vs. time) were quantified with or without norfloxacin and with variable concentrations of arabinose for inducing Fab expression."}, "NorA [4]": {"target": "T2, NorA", "experiment": "NorA pull-down from E. coli co-expressing NorA and Fabs, immunoblot", "assay_type": "binding, S. aureus", "conditions": "co-expression with 0.2% arabinose"}, "NorA [5]": {"target": "T2, NorA", "experiment": "Microscale thermophoresis (MST) binding of fluorescently labelled Fabs to NorA in PMAL-C8 amphipol", "parameters": "species or system S. aureus", "conditions": "labelled Fab 40 nM", "description": "Amphipol-purified NorA underwent an additional round of SEC to remove free amphipol. Purified Fabs were prepared as described above and labelled with a primary amine-reactive 647 nm fluorophore (Nanotemper) according to the manufacturer's instructions. Efficient labelling was verified spectroscopically by measuring absorbance at 280 and 650 nm. Microscale thermophoresis (MST) experiments were performed on a Monolith NT.115 Pico instrument (Nanotemper Technologies). Labelled Fab at 40 nM final concentration was mixed with NorA in 20 mM Tris pH 7.0, 100 mM NaCl, and 0.025% (w/v) Tween-20. All samples were incubated for 15 min and loaded into premium glass capillaries. The normalized fluorescent signal (Fnorm) was plotted as a function of ligand concentration and fit with a non-linear sigmoidal regression model (GraphPad Prism) using a Hill slope equal to 1.0 to obtain the Kd values. The error in Kd values for Fab25 (1.2±0.7 μM) and Fab36 (140±20 nM) represent the average and standard deviation of two independent runs with three replicates per independent run. The error range in the Kd value for Fab36^W133A (2 to 4 μM) corresponds to the 95% confidence interval of the non-linear fit. […] MST binding experiments with Fab36^W133A and Fab36^R134A were collected with three replicates each."}, "[6]": {"target": "T1, S. aureus NorA with a carboxy-terminal …", "remark": "listed apart in the source"}, "[7]": {"target": "T1, S. aureus NorA with a carboxy-terminal …", "experiment": "MST; range is the 95% confidence interval of the non-linear fit"}, "[8]": {"target": "T3, S. aureus NorA with a carboxy-terminal decahistidine tag, purified (Staphylococcus aureus), Q5HHX4", "T3 chain": "T1 sequence"}, "[9]": {"target": "T3, S. aureus NorA with a carboxy-terminal …"}, "[10]": {"target": "T4, Native NorA of MRSA (USA300 strain JE2) (Staphylococcus aureus), Q5HHX4", "T4 chain": "T1 sequence", "experiment": "cell-based or functional assay"}}, "note": "Residue numbers refer to the chain shown, from its start. Names and notes keep the numbering of the source. Like-named read-outs stand apart in the source and are kept apart here."}
{"molecule": "NH2-YYYYAWEVGGYWR-CONH2 (H-YYYYAWEVGGYWR-NH2) [NPI-2, control peptide substituting a glutamate for the arginine residue in the tryptophan-arginine motif, reference compound]", "values": [{"measurement": "growth arrest of MRSA in the presence of norfloxacin", "setting": "MRSA", "result": "displayed no growth arrest of MRSA"}]}
{"molecule": "B1", "values": [{"measurement": "Kd", "setting": "[1]", "result": 140, "unit": "nM"}, {"measurement": "fold tighter binding affinity against Fab25", "setting": "[2]", "result": "~9", "unit": "fold"}]}
{"molecule": "B2", "values": [{"measurement": "E. coli growth inhibition in the presence of norfloxacin", "setting": "NorA [3]", "result": "strongly attenuated E. coli growth in an arabinose-dependent manner"}, {"measurement": "E. coli growth inhibition in the absence of norfloxacin", "setting": "NorA [3]", "result": "no growth inhibition"}, {"measurement": "Fab in elution fraction of purified NorA", "setting": "NorA [4]", "result": "contained the Fabs as detected through immunoblotting"}]}
{"molecule": "B3", "values": [{"measurement": "Kd", "setting": "NorA [5]", "result": "> 14000", "unit": "nM"}]}
{"molecule": "B4", "values": [{"measurement": "fold reduced binding affinity against Fab36", "setting": "[2]", "result": "> 100", "unit": "fold"}]}
{"molecule": "B5", "values": [{"measurement": "fold reduced binding affinity against Fab36", "setting": "[2]", "result": "~20", "unit": "fold"}, {"measurement": "Kd", "setting": "[6]", "result": 2800, "unit": "nM"}, {"measurement": "Kd", "setting": "[7]", "result": "2000 to 4000", "unit": "nM"}]}
{"molecule": "B6", "values": [{"measurement": "Kd", "setting": "NorA [5]", "result": "1200 ± 700", "unit": "nM"}, {"measurement": "E. coli growth inhibition in the presence of norfloxacin", "setting": "NorA [3]", "result": "showed inhibition of NorA, albeit to a lesser extent than for Fab36"}, {"measurement": "E. coli growth inhibition in the absence of norfloxacin", "setting": "NorA [3]", "result": "no growth inhibition"}, {"measurement": "Fab in elution fraction of purified NorA", "setting": "NorA [4]", "result": "contained the Fabs as detected through immunoblotting"}]}
{"molecule": "B7", "values": [{"measurement": "EC50", "setting": "[8]", "result": 6290, "unit": "nM"}, {"measurement": "IC50 (read off the curve)", "setting": "[9]", "result": 7000, "unit": "nM"}, {"measurement": "IC50 of dose-dependent growth inhibition of MRSA in the presence of norfloxacin (12.5 µg/ml), 10 hr timepoint", "setting": "[10]", "result": 720, "unit": "nM"}]}
